Measurements published in patent publication US20220010021A1 (Sanofi, published 2022).
Substitutions are numbered along the chain they refer to.

Tests used:
[1] = biological target: cell surface receptor composed of the tyrosine kinase receptor FGFR1c and co-receptor beta-Klotho (KLB) (human, UniProt P11362 22-822; Q86Z14 1-1044); test: cell-based or functional assay
beta-Klotho (KLB) = biological target: T1, beta-Klotho (KLB) (Homo sapiens (Human), UniProt Q86Z14 1-996); test: BLI (Octet) off-rate screening, mAb from supernatant on anti-hIgG Fc sensor, 5 nmol/L KLB;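 further: dissociation followed for 1800 s in D-PBS plus 0.1% BSA, antibody supernatants applied at 25 µg/mL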
T1 construct: also called β-Klotho; not shown: C-terminal His tag of the bought R&D Systems protein
T1 sequence: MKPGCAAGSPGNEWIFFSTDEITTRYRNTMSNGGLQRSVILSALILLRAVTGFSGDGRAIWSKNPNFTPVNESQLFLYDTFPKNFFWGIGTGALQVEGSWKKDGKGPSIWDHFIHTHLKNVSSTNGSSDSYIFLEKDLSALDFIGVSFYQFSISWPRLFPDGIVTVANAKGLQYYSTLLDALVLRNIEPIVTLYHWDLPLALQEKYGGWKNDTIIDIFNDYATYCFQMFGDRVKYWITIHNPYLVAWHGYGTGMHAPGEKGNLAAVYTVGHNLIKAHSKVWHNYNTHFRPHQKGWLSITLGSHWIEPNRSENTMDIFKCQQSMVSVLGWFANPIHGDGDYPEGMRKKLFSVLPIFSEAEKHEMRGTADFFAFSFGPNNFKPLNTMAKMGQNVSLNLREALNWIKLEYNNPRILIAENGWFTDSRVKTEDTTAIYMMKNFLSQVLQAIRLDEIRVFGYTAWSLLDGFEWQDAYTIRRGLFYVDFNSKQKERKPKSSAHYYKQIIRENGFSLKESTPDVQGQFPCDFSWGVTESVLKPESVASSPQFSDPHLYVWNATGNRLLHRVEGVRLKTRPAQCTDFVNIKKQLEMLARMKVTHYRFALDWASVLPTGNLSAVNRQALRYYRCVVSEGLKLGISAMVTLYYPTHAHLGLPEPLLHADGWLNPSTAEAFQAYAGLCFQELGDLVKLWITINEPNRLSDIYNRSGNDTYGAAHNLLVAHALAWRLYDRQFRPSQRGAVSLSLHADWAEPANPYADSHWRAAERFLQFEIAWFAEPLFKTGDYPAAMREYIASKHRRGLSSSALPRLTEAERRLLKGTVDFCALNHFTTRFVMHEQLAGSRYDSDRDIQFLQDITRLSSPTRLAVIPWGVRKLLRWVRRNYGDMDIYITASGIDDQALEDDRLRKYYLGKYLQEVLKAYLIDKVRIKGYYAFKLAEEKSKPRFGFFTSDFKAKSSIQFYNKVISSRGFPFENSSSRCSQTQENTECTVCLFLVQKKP

human beta-Klotho (KLB) = biological target: T2, human beta-Klotho (KLB) (human, UniProt Q86Z14 53-997); test: SPR;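 further: Anti-KLB antibodies captured on anti-human Fc CM5 chip, KLB injected as analyte, 180 s association and 1800 s dissociation, fitted to 1:1 binding model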
T2 construct: bought protein; also called human KLB
T2 sequence (looked up): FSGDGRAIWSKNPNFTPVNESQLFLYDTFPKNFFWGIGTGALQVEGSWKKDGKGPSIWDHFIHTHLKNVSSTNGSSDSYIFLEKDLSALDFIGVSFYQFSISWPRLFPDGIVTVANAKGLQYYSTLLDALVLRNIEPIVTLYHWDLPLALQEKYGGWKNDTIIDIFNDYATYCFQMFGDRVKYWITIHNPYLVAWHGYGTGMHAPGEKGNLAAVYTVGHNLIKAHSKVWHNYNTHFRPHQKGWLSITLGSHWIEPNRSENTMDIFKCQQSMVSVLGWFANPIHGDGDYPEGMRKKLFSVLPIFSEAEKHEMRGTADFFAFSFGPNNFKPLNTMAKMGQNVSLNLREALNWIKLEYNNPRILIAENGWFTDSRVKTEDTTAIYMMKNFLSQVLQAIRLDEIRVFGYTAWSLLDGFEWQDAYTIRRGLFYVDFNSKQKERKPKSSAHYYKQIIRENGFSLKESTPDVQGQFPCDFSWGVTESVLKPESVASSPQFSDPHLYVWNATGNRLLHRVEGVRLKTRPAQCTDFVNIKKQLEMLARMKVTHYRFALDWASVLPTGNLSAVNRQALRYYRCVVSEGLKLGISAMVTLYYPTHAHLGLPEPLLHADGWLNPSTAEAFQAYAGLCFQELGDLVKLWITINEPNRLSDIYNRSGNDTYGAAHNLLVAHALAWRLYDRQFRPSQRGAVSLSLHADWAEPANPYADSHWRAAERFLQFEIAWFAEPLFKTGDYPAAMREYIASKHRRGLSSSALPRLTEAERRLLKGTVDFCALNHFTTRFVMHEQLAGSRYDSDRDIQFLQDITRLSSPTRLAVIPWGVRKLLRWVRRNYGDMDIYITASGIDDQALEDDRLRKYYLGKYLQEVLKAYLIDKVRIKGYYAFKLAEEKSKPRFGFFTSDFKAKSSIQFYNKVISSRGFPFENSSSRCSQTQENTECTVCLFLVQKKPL

[2] = biological target: human FGFR1c + KLB receptor complex on HEK293 iLite FGF21 reporter cells (human, UniProt P11362 22-822; Q86Z14 1-1044); test: cell-based or functional assay
human FGFR1c + KLB receptor complex on HEK293 iLite FGF21 reporter cells, sequence (P11362 22-822, chain 1 of 2): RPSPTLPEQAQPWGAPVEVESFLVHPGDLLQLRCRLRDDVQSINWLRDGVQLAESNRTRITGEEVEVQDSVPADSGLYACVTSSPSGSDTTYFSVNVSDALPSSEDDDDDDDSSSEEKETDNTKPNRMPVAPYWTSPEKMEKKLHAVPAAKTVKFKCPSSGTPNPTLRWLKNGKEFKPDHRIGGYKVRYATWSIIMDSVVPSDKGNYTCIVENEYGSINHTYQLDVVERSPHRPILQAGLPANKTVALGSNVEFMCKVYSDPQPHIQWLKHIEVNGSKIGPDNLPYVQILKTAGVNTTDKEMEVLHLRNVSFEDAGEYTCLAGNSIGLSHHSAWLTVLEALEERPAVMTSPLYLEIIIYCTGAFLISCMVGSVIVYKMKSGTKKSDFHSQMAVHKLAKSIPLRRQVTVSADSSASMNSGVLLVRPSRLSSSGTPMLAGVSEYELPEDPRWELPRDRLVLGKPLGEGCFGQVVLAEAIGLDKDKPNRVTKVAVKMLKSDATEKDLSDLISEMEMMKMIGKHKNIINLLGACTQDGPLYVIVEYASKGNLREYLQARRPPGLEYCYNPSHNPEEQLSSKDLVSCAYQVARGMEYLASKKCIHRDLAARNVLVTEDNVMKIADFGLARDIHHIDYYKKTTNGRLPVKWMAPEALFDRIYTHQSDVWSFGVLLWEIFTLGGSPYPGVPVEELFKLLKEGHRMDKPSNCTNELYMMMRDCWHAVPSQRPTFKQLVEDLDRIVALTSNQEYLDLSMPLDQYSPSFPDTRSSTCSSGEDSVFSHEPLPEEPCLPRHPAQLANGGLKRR
human FGFR1c + KLB receptor complex on HEK293 iLite FGF21 reporter cells, sequence (Q86Z14 whole entry, chain 2 of 2): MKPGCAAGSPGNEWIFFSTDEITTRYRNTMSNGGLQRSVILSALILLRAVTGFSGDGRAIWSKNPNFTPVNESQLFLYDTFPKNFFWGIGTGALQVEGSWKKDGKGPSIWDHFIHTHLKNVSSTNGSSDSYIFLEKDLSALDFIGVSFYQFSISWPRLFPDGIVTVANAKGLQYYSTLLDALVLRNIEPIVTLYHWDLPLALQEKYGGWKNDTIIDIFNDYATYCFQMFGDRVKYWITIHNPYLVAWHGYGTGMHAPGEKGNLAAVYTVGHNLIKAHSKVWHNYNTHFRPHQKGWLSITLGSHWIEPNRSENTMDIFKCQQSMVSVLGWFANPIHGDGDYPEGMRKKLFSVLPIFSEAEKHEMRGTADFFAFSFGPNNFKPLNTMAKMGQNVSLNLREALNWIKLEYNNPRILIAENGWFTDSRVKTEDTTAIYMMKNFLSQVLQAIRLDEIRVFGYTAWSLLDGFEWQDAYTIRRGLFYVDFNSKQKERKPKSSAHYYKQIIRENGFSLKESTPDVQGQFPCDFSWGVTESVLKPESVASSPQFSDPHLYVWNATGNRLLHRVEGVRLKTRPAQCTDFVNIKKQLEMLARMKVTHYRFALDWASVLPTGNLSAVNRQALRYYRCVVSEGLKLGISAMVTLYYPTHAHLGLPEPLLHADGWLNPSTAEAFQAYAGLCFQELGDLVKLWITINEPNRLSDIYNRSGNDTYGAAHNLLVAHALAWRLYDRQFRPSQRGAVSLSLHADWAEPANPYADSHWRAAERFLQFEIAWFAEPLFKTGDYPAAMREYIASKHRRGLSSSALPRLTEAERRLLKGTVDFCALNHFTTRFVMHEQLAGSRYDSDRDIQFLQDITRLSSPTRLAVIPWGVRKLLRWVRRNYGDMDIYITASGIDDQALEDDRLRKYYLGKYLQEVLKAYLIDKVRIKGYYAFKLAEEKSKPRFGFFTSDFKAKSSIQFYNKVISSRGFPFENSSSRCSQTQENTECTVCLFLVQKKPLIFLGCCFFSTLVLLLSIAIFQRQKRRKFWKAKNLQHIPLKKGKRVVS

cell surface receptor composed of the tyrosine kinase receptor FGFR1c and co-receptor beta-Klotho (KLB), sequence (P11362 22-822, one chain of several): as the sequence (P11362 22-822, chain 1 of 2) above

B1: 16H7 variant with light chain substitution S94G (antibody, human IgG4 S228P, lambda, V domains shown)
VH: not shown
VL: SYVLTQPPSVSVAPGQTARITCGGNNIGSESVHWYQQKPGQAPVLVVYDDSDRPSGIPERFSGSNSGNTATLTISRVEAGDEADYYCQVWDGNGDHVVFGGGTKLTVLG
notes: IgG4 backbone was used
Mean E max, Luciferase gene reporter assay [1]: 100% | Mean EC50, Luciferase gene reporter assay [1]: 0.146 nM | koff (beta-Klotho (KLB)): 6.8e-05 s⁻¹

B2: 16H7 variant with light chain substitution H96Q (antibody, human IgG4 S228P, lambda, V domains shown)
VH: not shown
VL: B1 VL with G94S, H96Q
notes: IgG4 backbone was used
Mean E max, Luciferase gene reporter assay [1]: 104% | Mean EC50, Luciferase gene reporter assay [1]: 0.106 nM | koff (beta-Klotho (KLB)): 5e-05 s⁻¹

B3: 16H7 variant with light chain substitution N93C (antibody, human IgG4 S228P, lambda, V domains shown)
VH: not shown
VL: B1 VL with N93C, G94S
notes: IgG4 backbone was used
Mean E max, Luciferase gene reporter assay [1]: 107% | Mean EC50, Luciferase gene reporter assay [1]: 0.148 nM | koff (beta-Klotho (KLB)): 5.8e-05 s⁻¹

B4: 16H7 variant with light chain substitution D95H (antibody, human IgG4 S228P, lambda, V domains shown)
VH: not shown
VL: B1 VL with G94S, D95H
notes: IgG4 backbone was used
Mean E max, Luciferase gene reporter assay [1]: 33% | Mean EC50, Luciferase gene reporter assay [1]: 29.7 nM | koff (beta-Klotho (KLB)): 8.1e-06 s⁻¹

B5: 16H7 variant with light chain substitution D95A (antibody, human IgG4 S228P, lambda, V domains shown)
VH: not shown
VL: B1 VL with G94S, D95A
notes: IgG4 backbone was used
Mean E max, Luciferase gene reporter assay [1]: 12% | koff (beta-Klotho (KLB)): 0.0002 s⁻¹

B6: 16H7 variant with light chain substitution H96E (antibody, human IgG4 S228P, lambda, V domains shown)
VH: not shown
VL: B1 VL with G94S, H96E
notes: IgG4 backbone was used
Mean E max, Luciferase gene reporter assay [1]: 100% | Mean EC50, Luciferase gene reporter assay [1]: 0.122 nM | koff (beta-Klotho (KLB)): 1.1e-05 s⁻¹

B7: Ab0417 (antibody, IgG4, V domains shown)
VH: QVTLKESGPVLVKPTETLTLTCTVSGFSLNNARVGVSWIRQPPGKALEWLAHIFSNDEKSYSTSLKSRLTISKDTSKSQVVLTMTNMDPVDTATYYCARSVVTGGYYYEGMDVWGQGTTVTVSS
VL: B1 VL with N25S, D49Y, D50E, D91H, N93E, G94S
notes: IgG4 PE
koff (human beta-Klotho (KLB)): 0.000303 s⁻¹ | EC50 [2]: 0.06 nM | Emax [2]: 1110%

B8: 16H7 variant with light chain substitution H96G (antibody, human IgG4 S228P, lambda, V domains shown)
VH: not shown
VL: B1 VL with G94S, H96G
notes: IgG4 backbone was used
Mean E max, Luciferase gene reporter assay [1]: 95% | Mean EC50, Luciferase gene reporter assay [1]: 0.13 nM | koff (beta-Klotho (KLB)): 0.00015 s⁻¹

B9: Ab0416 (antibody, IgG4, V domains shown)
VH: B7 VH
VL: B1 VL with N25S, D49Y, D50E, D91E, N93E, G94S
notes: IgG4 PE
koff (human beta-Klotho (KLB)): 0.00107 s⁻¹ | EC50 [2]: 0.05 nM | Emax [2]: 863%

B10: 16H7 variant with light chain substitution D95Y (antibody, human IgG4 S228P, lambda, V domains shown)
VH: not shown
VL: B1 VL with G94S, D95Y
notes: IgG4 backbone was used
Mean E max, Luciferase gene reporter assay [1]: 4% | koff (beta-Klotho (KLB)): 0.00013 s⁻¹

B11: 16H7 variant with light chain substitution H96S (antibody, human IgG4 S228P, lambda, V domains shown)
VH: not shown
VL: B1 VL with G94S, H96S
notes: IgG4 backbone was used
Mean E max, Luciferase gene reporter assay [1]: 102% | Mean EC50, Luciferase gene reporter assay [1]: 0.097 nM | koff (beta-Klotho (KLB)): 3e-05 s⁻¹

B12: 16H7 variant with light chain substitution H96N (antibody, human IgG4 S228P, lambda, V domains shown)
VH: not shown
VL: B1 VL with G94S, H96N
notes: IgG4 backbone was used
Mean E max, Luciferase gene reporter assay [1]: 112% | Mean EC50, Luciferase gene reporter assay [1]: 0.143 nM | koff (beta-Klotho (KLB)): 4.4e-05 s⁻¹

B13: Ab0361 (antibody, IgG4, V domains shown)
VH: B7 VH
VL: B1 VL with N25S, D49E, D50S, D91E, N93S, G94S
notes: IgG4 PE
koff (human beta-Klotho (KLB)): 0.00163 s⁻¹ | EC50 [2]: 0.07 nM | Emax [2]: 986%

B14: 16H7 variant with light chain substitution H96K (antibody, human IgG4 S228P, lambda, V domains shown)
VH: not shown
VL: B1 VL with G94S, H96K
notes: IgG4 backbone was used
Mean E max, Luciferase gene reporter assay [1]: 98% | Mean EC50, Luciferase gene reporter assay [1]: 0.179 nM | koff (beta-Klotho (KLB)): 6.4e-05 s⁻¹

B15: 16H7 variant with light chain substitution D95M (antibody, human IgG4 S228P, lambda, V domains shown)
VH: not shown
VL: B1 VL with G94S, D95M
notes: IgG4 backbone was used
Mean E max, Luciferase gene reporter assay [1]: 8% | koff (beta-Klotho (KLB)): 1.4e-05 s⁻¹

B16: 16H7 variant with light chain substitution N93A (antibody, human IgG4 S228P, lambda, V domains shown)
VH: not shown
VL: B1 VL with N93A, G94S
notes: IgG4 backbone was used
Mean E max, Luciferase gene reporter assay [1]: 101% | Mean EC50, Luciferase gene reporter assay [1]: 0.108 nM | koff (beta-Klotho (KLB)): 7.5e-06 s⁻¹

B17: 16H7 variant with light chain substitution N93F (antibody, human IgG4 S228P, lambda, V domains shown)
VH: not shown
VL: B1 VL with N93F, G94S
notes: IgG4 backbone was used
Mean E max, Luciferase gene reporter assay [1]: 100% | Mean EC50, Luciferase gene reporter assay [1]: 0.165 nM | koff (beta-Klotho (KLB)): 2.2e-06 s⁻¹

B18: Ab0364 (antibody, IgG4, V domains shown)
VH: B7 VH
VL: B1 VL with N25A, D49E, D50E, D91E, N93S, G94S
notes: IgG4 PE
koff (human beta-Klotho (KLB)): 0.00169 s⁻¹ | EC50 [2]: 0.11 nM | Emax [2]: 991%

B19: 16H7 variant with light chain substitution N93D (antibody, human IgG4 S228P, lambda, V domains shown)
VH: not shown
VL: B1 VL with N93D, G94S
notes: IgG4 backbone was used
Mean E max, Luciferase gene reporter assay [1]: 108% | Mean EC50, Luciferase gene reporter assay [1]: 0.123 nM | koff (beta-Klotho (KLB)): 3.8e-05 s⁻¹

B20: 16H7 variant with light chain substitution H96T (antibody, human IgG4 S228P, lambda, V domains shown)
VH: not shown
VL: B1 VL with G94S, H96T
notes: IgG4 backbone was used
Mean E max, Luciferase gene reporter assay [1]: 110% | Mean EC50, Luciferase gene reporter assay [1]: 0.11 nM | koff (beta-Klotho (KLB)): 1.8e-05 s⁻¹

B21: 16H7 variant with light chain substitution H96D (antibody, human IgG4 S228P, lambda, V domains shown)
VH: not shown
VL: B1 VL with G94S, H96D
notes: IgG4 backbone was used
Mean E max, Luciferase gene reporter assay [1]: 100% | Mean EC50, Luciferase gene reporter assay [1]: 0.111 nM | koff (beta-Klotho (KLB)): 2.2e-05 s⁻¹

B22: 16H7 variant with light chain substitution H96Y (antibody, human IgG4 S228P, lambda, V domains shown)
VH: not shown
VL: B1 VL with G94S, H96Y
notes: IgG4 backbone was used
Mean E max, Luciferase gene reporter assay [1]: 103% | Mean EC50, Luciferase gene reporter assay [1]: 0.134 nM | koff (beta-Klotho (KLB)): 6.9e-05 s⁻¹

B23: 16H7 variant with light chain substitution H96V (antibody, human IgG4 S228P, lambda, V domains shown)
VH: not shown
VL: B1 VL with G94S, H96V
notes: IgG4 backbone was used
Mean E max, Luciferase gene reporter assay [1]: 91% | Mean EC50, Luciferase gene reporter assay [1]: 0.13 nM | koff (beta-Klotho (KLB)): 4.1e-05 s⁻¹

B24: 16H7 variant with light chain substitution H96R (antibody, human IgG4 S228P, lambda, V domains shown)
VH: not shown
VL: B1 VL with G94S, H96R
notes: IgG4 backbone was used
Mean E max, Luciferase gene reporter assay [1]: 102% | Mean EC50, Luciferase gene reporter assay [1]: 0.095 nM | koff (beta-Klotho (KLB)): 0.00014 s⁻¹

B25: 16H7 variant with light chain substitution D95I (antibody, human IgG4 S228P, lambda, V domains shown)
VH: not shown
VL: B1 VL with G94S, D95I
notes: IgG4 backbone was used
Mean E max, Luciferase gene reporter assay [1]: 4% | koff (beta-Klotho (KLB)): 0.00016 s⁻¹

B26: 16H7 variant with light chain substitution H96L (antibody, human IgG4 S228P, lambda, V domains shown)
VH: not shown
VL: B1 VL with G94S, H96L
notes: IgG4 backbone was used
Mean E max, Luciferase gene reporter assay [1]: 98% | Mean EC50, Luciferase gene reporter assay [1]: 0.176 nM | koff (beta-Klotho (KLB)): 0.00013 s⁻¹

B27: 16H7 variant with light chain substitution H96W (antibody, human IgG4 S228P, lambda, V domains shown)
VH: not shown
VL: B1 VL with G94S, H96W
notes: IgG4 backbone was used
Mean E max, Luciferase gene reporter assay [1]: 103% | Mean EC50, Luciferase gene reporter assay [1]: 0.155 nM | koff (beta-Klotho (KLB)): 0.00012 s⁻¹
